Results published in PMC10330844 (Traffic (Copenhagen, Denmark), 2023).

T1: Syntaxin-5 (STX5), endogenous, as precipitated by the anti-STX5 antibody (human (endogenous in HEK293T), UniProt Q13190 1-355)
T1 sequence (looked up): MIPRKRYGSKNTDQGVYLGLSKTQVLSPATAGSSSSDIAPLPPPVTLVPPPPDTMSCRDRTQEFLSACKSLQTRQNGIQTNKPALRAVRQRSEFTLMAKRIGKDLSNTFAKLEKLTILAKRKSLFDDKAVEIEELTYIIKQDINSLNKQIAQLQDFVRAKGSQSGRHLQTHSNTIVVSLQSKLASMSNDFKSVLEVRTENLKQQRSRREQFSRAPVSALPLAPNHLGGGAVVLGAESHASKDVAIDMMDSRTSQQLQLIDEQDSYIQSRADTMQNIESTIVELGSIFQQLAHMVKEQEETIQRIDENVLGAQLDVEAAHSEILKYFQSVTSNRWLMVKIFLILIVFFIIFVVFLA

T2: SNAP29-His6 (SNAP29 in pET23a) (UniProt O95721 1-258)
T2 sequence (looked up): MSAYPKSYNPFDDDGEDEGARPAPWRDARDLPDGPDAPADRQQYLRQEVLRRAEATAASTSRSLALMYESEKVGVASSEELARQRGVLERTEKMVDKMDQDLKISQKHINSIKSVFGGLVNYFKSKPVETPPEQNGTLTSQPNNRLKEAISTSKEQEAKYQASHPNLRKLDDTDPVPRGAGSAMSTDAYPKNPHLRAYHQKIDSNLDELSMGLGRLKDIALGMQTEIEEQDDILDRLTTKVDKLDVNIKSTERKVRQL


Columns and labels:
[1] = biological target: T1, Syntaxin-5 (STX5), endogenous, as …; assay: co-IP
[2] = biological target: T2, SNAP29-His6 (SNAP29 in pET23a); assay: pull-down

Row | Binder | percent of the cellular protein present in STX5 complexes (GS28 KO cells) [1] [%] | stoichiometry N [2]
1 | VTI1B, endogenous (natural protein, human (endogenous in HEK293T), UniProt Q9UEU0 1-232, looked up) MASSAASSEHFEKLHEIFRGLHEDLQGVPERLLGTAGTEEKKKLIRDFDEKQQEANETLAEMEEELRYAPLSFRNPMMSKLRNYRKDLAKLHREVRSTPLTATPGGRGDMKYGIYAVENEHMNRLQSQRAMLLQGTESLNRATQSIERSHRIATETDQIGSEIIEELGEQRDQLERTKSRLVNTSENLSKSRKILRSMSRKVTTNKLLLSIIILLELAILGGLVYYKFFRSH | < 25 | –
2 | VAMP7, endogenous (natural protein, human (endogenous in HEK293T), UniProt P51809 1-220, looked up) MAILFAVVARGTTILAKHAWCGGNFLEVTEQILAKIPSENNKLTYSHGNYLFHYICQDRIVYLCITDDDFERSRAFNFLNEIKKRFQTTYGSRAQTALPYAMNSEFSSVLAAQLKHHSENKGLDKVMETQAQVDELKGIMVRNIDLVAQRGERLELLIDKTENLVDSSVTFKTTSRNLARAMCMKNLKLTIIIIIVSIVFIYIIVSPLCGGFTWPSCVKK | < 25 | –

Results, then the binder that gave them:

Row | percent of the cellular protein present in STX5 complexes (GS28 KO cells) [1] [%] | stoichiometry N [2] | Binder
3 | – | 1 | GST-STX5 (rSTX5 (55-333) in pGEX-KG) (domain or fragment, UniProt Q08851 55-333, looked up) MSCRDRTQEFLSACKSLQSRQNGIQTNKPALHATRQCSEFTLMARRIGKDLSNTFAKLEKLTILAKRKSLFDDKAVEIEELTYIIKQDINSLNKQIAQLQDFVRAKGSQSGRHLQTHSNTIVVSLQSKLASMSNDFKSVLEVRTENLKQQRNRREQFSRAPVSALPLAPNNLGGGPIVLGGESRASRDVAIDMMDPRTSQQLQLIDEQDSYIQSRADTMQNIESTIVELGSIFQQLAHMVKEQEETIQRIDENVLGAQLDVEAAHSEILKYFQSVTSNR
4 | ~35 | – | SNAP29, endogenous (natural protein, human (endogenous in HEK293T), UniProt O95721 1-258, looked up) MSAYPKSYNPFDDDGEDEGARPAPWRDARDLPDGPDAPADRQQYLRQEVLRRAEATAASTSRSLALMYESEKVGVASSEELARQRGVLERTEKMVDKMDQDLKISQKHINSIKSVFGGLVNYFKSKPVETPPEQNGTLTSQPNNRLKEAISTSKEQEAKYQASHPNLRKLDDTDPVPRGAGSAMSTDAYPKNPHLRAYHQKIDSNLDELSMGLGRLKDIALGMQTEIEEQDDILDRLTTKVDKLDVNIKSTERKVRQL
